# Measured values: patent US7012128B2, “Interaction between cyclin D1 and steroid receptor co-activators and uses thereof in assays” (TopoTarget UK Limited, priority 1998, dated 2006)
# Molecular target: T1, ER (Homo sapiens, UniProt P03372)
# T1 sequence (P03372 1-595): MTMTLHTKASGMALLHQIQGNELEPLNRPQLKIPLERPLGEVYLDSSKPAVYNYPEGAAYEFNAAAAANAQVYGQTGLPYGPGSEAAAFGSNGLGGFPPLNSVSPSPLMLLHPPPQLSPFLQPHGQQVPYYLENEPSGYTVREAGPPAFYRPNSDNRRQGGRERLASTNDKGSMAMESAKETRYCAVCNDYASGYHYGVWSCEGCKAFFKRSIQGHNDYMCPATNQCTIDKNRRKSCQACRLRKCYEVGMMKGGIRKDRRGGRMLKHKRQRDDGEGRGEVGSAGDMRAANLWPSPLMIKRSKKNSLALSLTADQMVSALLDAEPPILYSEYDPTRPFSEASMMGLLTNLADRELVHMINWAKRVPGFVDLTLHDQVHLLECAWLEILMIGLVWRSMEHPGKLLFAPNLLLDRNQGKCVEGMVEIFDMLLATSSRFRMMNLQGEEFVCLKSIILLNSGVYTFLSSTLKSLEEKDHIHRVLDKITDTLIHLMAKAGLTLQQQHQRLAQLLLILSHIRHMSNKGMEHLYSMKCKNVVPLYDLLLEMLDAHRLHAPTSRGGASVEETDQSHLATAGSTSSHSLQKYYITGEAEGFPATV
# Experiment: Co-immunoprecipitation with ER from COS-7 cells
# Format: binding
# Parameters: expressed in transfected cells; host or cells: COS-7
# Source text: COS-7 cells were cotransfected with HA-tagged constructs encoding the nuclear receptor coactivators SRC-1, AIB-1 or p300 (Anzick et al., 1997; Chakravarti et al., 1996; Hanstein et al., 1996; Kamei et al., 1996; Onate et al., 1995) together with control plasmid, plasmids directing the synthesis of wild type cyclin D1 or D1 L254/255A mutant (D1-LALA). 12CA5 HA antibodies were used for immunoprecipitation of whole cell extracts prepared from these cells and co-immunoprecipitation of cyclin D1 (mutants) was examined by Western blot analysis using anti-cyclin D1 antibody. […] Precipitation with the anti-cyclin D1 antibody from the total lysate of the cells transfected with cyclin D1 and cyclin D1-LALA was similar. Binding of cyclin D1 and cyclin D1 L254/255A mutant to ER was then investigated. COS-7 cells were transfected with ER expression vector, cyclin D1 (mutant) and/or control plasmids. […] Differentially phosphorylated species of pRb were detected by Western blotting using the polyclonal pRb antibody (C15, Santa Cruz).
# Cells were lysed in ELB containing 250 mM NaCl, 0.1% NP-40, 50 mM HEPES pH 7.0, 5 mM EDTA and protease inhibitors. […] After blocking with PBS containing 5% milk and 0.1% Tween-20, proteins were detected with monoclonal antibodies directed against cyclin D1 (DCS-6, Neomarkers) and peroxidase-conjugated goat anti-mouse IgG. […]
substance,measurement,value
Cyclin D1-LALA: cyclin D1 mutant in which leucines 254 and 255 were mutated to alanines; dominant negative,ability to bind ER,unaffected
